Experimental data from patent publication US20250026820A1 (WUHAN YZY BIOPHARMA, published 2025).

T1: TGFβ3 protein (GenScript Z03430) (human, UniProt P10600 301-412)
T1 construct: also called human TGF-β3
T1 sequence (looked up): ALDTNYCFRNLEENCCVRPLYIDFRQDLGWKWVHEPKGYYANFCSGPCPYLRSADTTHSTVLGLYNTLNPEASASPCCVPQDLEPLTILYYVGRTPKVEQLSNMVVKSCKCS

T2: TGFβ2 protein (GenScript Z03429) (human, UniProt P61812 303-414)
T2 construct: also called human TGF-β2
T2 sequence (looked up): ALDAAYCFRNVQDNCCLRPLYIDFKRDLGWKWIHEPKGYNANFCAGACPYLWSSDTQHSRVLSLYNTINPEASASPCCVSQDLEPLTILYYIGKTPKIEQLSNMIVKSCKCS


Experiments:
[1] = target: T1, TGFβ3 protein (GenScript Z03430); assay: ELISA; plate coated with human TGF-β3; antibody titrated; HRP anti-human Fc
Protocol: (§1) A microplate was coated with 2 μL/well of the human TGF-β1/2/3 protein solution, respectively, at 4° C. overnight; the supernatant was discarded, 300 μL of a blocking solution (PBS containing 3% BSA) was added to each well, and the plate was blocked at 37° C. for 2 h; the antibodies were gradiently diluted, and the diluent was PBS containing 1% BSA. For example, the initial concentration of the antibody dilution was 500 nM, and diluted 10-fold to obtain 8 concentration gradients. The diluted antibody was added to the well of the microplate at 200 μL per well, the plate was left to stand and incubated at room temperature for 2 h, and the supernatant was discarded; the plate was washed for 3 times with 200 μL/well PBST (PBS containing 0.1% Tween 20); a diluted HRP-labeled anti-human Fc secondary antibody (SIGMA, A8667) was added, the secondary antibody was used after a 1:20000 dilution, the diluent was PBS containing 1% BSA, the volume was 100 μL/well, and the plate was incubated at room temperature for 1 h; the plate was washed for 5 times with 200 μL/well PBST; a TMB chromogenic solution (BD, 55214) was added at 100 μL/well for color development at 37° C. for 8 min. 2 M HCl stop solution was added at 100 μL/well. After the addition of the stop solution, the 450 nm values were read using a microplate reader within 30 min. Data were analyzed using GraphPad Prism 6.0 software and avidity fitting was performed to give EC50 values.

[2] = target: T2, TGFβ2 protein (GenScript Z03429); assay: ELISA; plate coated with human TGF-β2; antibody titrated; HRP anti-human Fc
Protocol: as §1

[3] = target: T3, TGFβ1 protein (GenScript Z03411) (human, UniProt P01137 279-390); assay: ELISA; plate coated with human TGF-β1; antibody titrated; HRP anti-human Fc
T3 construct: also called human TGF-β1; TGFβ1 antigen
Protocol: as §1

[4] = target: T3, TGFβ1 protein (GenScript Z03411); assay: cell-based or functional assay

T3 sequence (P01137 279-390 limits assumed, one chain of several): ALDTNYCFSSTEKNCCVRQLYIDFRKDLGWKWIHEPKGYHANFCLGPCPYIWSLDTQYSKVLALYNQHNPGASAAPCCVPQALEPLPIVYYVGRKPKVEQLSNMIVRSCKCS

Binder | EC50 [1] [nM] | EC50 [2] [nM] | EC50 [3] [nM] | EC50 of TGF-β1 inhibitory activity (TF-1 cell proliferation) [4] [nM]
B1F8 anti-TGFβ single domain heavy-chain antibody (variable region, linker peptide, human IgG1 heavy chain constant region) (Fc fusion, also called BIF8; not shown: linker peptide (GGGGS)n, n=1, 2 or 3; human IgG1 heavy chain constant region, GenBank No. AK303185.1) heavy: QVQLVESGGGLVQPGGSLRLSCAASGSIFGVFYMGWFRQAPGKQREMVAISTDDRTSYVDSVKGRFTISRDNAKNTLALQMNSLKPEDTAVYFCNLNQLGTDYWGPGTQVTVSS | 1.29 | 1.42 | 0.785 | –
B3F3 anti-TGFβ single domain heavy-chain antibody (variable region, linker peptide, human IgG1 heavy chain constant region) (Fc fusion, not shown: linker peptide (GGGGS)n, n=1, 2 or 3; human IgG1 heavy chain constant region, GenBank No. AK303185.1) heavy: QVQLVESGGGLVQPGESLRLSCTASGSIFGVFYMGWFRQAPGKQRDMVAISTDDRTSYADSVKGRFTISRDNAKNTLALQMNSLKPEDTAVYFCNLNQLGTDYWGPGTQVTVSS | 1.46 | 1.62 | 1.48 | –
B1B8 anti-TGFβ single domain heavy-chain antibody (variable region, linker peptide, human IgG1 heavy chain constant region) (Fc fusion, not shown: linker peptide (GGGGS)n, n=1, 2 or 3; human IgG1 heavy chain constant region, GenBank No. AK303185.1) heavy: EVQVVESGGGLVQPGGSLTLSCVASGFAFSFTPMRWVRQAPGKGLEWVSSISIRGDTTDYADSVKGRFTISRDNAKNTLYLQMNSLKPEDTAVYYCSRGSSISTSTERTQGTQVTVSS | 0.817 | 0.464 | 0.533 | –
B3D6 anti-TGFβ single domain heavy-chain antibody (variable region, linker peptide, human IgG1 heavy chain constant region) (Fc fusion, not shown: linker peptide (GGGGS)n, n=1, 2 or 3; human IgG1 heavy chain constant region, GenBank No. AK303185.1) heavy: EVQLVESGGGLVQAGGSLRLSCAASGRSFSSLAVGWFRQPPGKKREIVAAVNWSGTSTYYPDSVKGRFSISRDNTKNTVYLQMNSLKPEDTAVYYCAADPDLRWLKLWGYEYWGQGTQVTVSS | 1.22 | 0.939 | 0.747 | –
B1B7 anti-TGFβ single domain heavy-chain antibody (variable region, linker peptide, human IgG1 heavy chain constant region) (Fc fusion, not shown: linker peptide (GGGGS)n, n=1, 2 or 3; human IgG1 heavy chain constant region, GenBank No. AK303185.1) heavy: QVQLVESGGGLVQPGGSLTLSCTASGSMFSFYTMGWYRQATGKQRELVAGISLGGETTYAPSVKDRFTISRDNAKNTVYLQMNSLKPEDTALYNCNAYWGEDYWGQGTQVTVSS | 162 | 148 | 7.01 | –
B2G8 anti-TGFβ single domain heavy-chain antibody (variable region, linker peptide, human IgG1 heavy chain constant region) (Fc fusion, not shown: linker peptide (GGGGS)n, n=1, 2 or 3; human IgG1 heavy chain constant region, GenBank No. AK303185.1) heavy: QVQLVESGGGLVQPGGSLRLSCAASGISFSYYDMGWFRQAPGKQRELVAIVTSGGRTNYADSVKGRFTISRETAKSTMYLQMNSLKSEDTGVYYCNAHWIVTTDYWGQGTQVTVAS | 1.47 | 1.73 | 1.72 | –

The next lines start with the values.

EC50 [1] [nM] | EC50 [2] [nM] | EC50 [3] [nM] | EC50 of TGF-β1 inhibitory activity (TF-1 cell proliferation) [4] [nM] | Binder
0.546 | 1.85 | 0.442 | – | B1C5 anti-TGFβ single domain heavy-chain antibody (variable region, linker peptide, human IgG1 heavy chain constant region) (Fc fusion, not shown: linker peptide (GGGGS)n, n=1, 2 or 3; human IgG1 heavy chain constant region, GenBank No. AK303185.1) heavy: EVQLVESGGGEVRPGGSLRLSCVVSGFTKDYGAIGWFRQAPGQEREGLGCIARKDGDTWSADSVKGRFTISRDNVRNTVYLQMNALKPEDRGVYYCAGDPSALYGCSDRSSEYQYWGQGTQVTVSS
1.21 | 1.42 | 4.83 | – | B2C9 anti-TGFβ single domain heavy-chain antibody (variable region, linker peptide, human IgG1 heavy chain constant region) (Fc fusion, not shown: linker peptide (GGGGS)n, n=1, 2 or 3; human IgG1 heavy chain constant region, GenBank No. AK303185.1) heavy: EVQVVESGGGLVQPGGSLRLSCAASASVFSWSVMGWFRQAPGKQRELVAISSGDRETYADSVKGRFTISRDNAKNTVYLQMDTLKPEDTAVYFCNAYVPVGESRGDYWGQGTQVTVSS
1.71 | 1.54 | 130 | – | B2H1 anti-TGFβ single domain heavy-chain antibody (variable region, linker peptide, human IgG1 heavy chain constant region) (Fc fusion, not shown: linker peptide (GGGGS)n, n=1, 2 or 3; human IgG1 heavy chain constant region, GenBank No. AK303185.1) heavy: QLQLVESGGGLVQPGESLRLSCAASGIIFSASTMAWFRQAPGKQRELVALITDGDRTNYADSVKGRFTISRDNAENTVYLQMTELKFEDTAVYYCNAFWLKAYWGQGTQVTVSS
1.43 | 1.42 | 1.25 | – | B2C2 anti-TGFβ single domain heavy-chain antibody (variable region, linker peptide, human IgG1 heavy chain constant region) (Fc fusion, not shown: linker peptide (GGGGS)n, n=1, 2 or 3; human IgG1 heavy chain constant region, GenBank No. AK303185.1) heavy: QLQLVESGGGLVQPGGSLRLSCAGSGIAFSRVTMAWSRQAPGKQRELVALITDGNRSAYVDSVKGRFTISRDNTKKTMSLQMNDLKPEDTAVYYCVATDWVPTRRDYWGQGTQVTVSS
1.3 | 1.18 | 48 | – | B2A2 anti-TGFβ single domain heavy-chain antibody (variable region, linker peptide, human IgG1 heavy chain constant region) (Fc fusion, not shown: linker peptide (GGGGS)n, n=1, 2 or 3; human IgG1 heavy chain constant region, GenBank No. AK303185.1) heavy: EVQVVESGGAAVQPGESLRLSCAASGSIFNTATMGWFRQAPGKQREMVAIITDGGRTNYADSVKGRFTISRDATKNTVYLQMNSLNPGDTAVYYCNALTIVPRSSIYWGQGTQVTVSS
– | – | – | 0.813 | B1B8-Fc-B1B8 (Fc fusion) heavy: EVQVVESGGGLVQPGGSLTLSCVASGFAFSFTPMRWVRQAPGKGLEWVSSISIRGDTTDYADSVKGRFTISRDNAKNTLYLQMNSLKPEDTAVYYCSRGSSISTSTERTQGTQVTVSSGGGGSDKTHTCPPCPAPPVAGPSVFLFPPKPKDTLMISRTPEVTCVVVDVSHEAPEVQFNWYVDGVEVHNAKTKPREEQFNSTFRVVSVLTVVHQDWLNGKEYKCKVSNKGLPAPIEKTISKTKGQPREPQVYTLPPSRDELTKNQVSLTCLVKGFYPSDIAVEWESNGQPENNYKTTPPVLDSDGSFFLYSKLTVDKSRWQQGNVFSCSVMHEALHNHYTQKSLSLSPGGGGGSEVQVVESGGGLVQPGGSLTLSCVASGFAFSFTPMRWVRQAPGKGLEWVSSISIRGDTTDYADSVKGRFTISRDNAKNTLYLQMNSLKPEDTAVYYCSRGSSISTSTERTQGTQVTVSS
1.19 | 27.6 | 69.2 | – | B3D2 anti-TGFβ single domain heavy-chain antibody (variable region, linker peptide, human IgG1 heavy chain constant region) (Fc fusion, not shown: linker peptide (GGGGS)n, n=1, 2 or 3; human IgG1 heavy chain constant region, GenBank No. AK303185.1) heavy: QLQLVESGGGLVQPGGSLTLSCLASGFTFSHYPMSWVRQAPGKGLEWVSVIGSDGAIKHYSDSVKGRFAISRDNAKNTLYLQMNSLKPEDTAVYYCAEGDSRYVRNRARGQGTQVTVSS
